These results are taken from patent US20190010196A1 (GOVERNING COUNCIL OF THE UNIVERSITY OF TORONTO, published 2019).

Square brackets hold non-standard residues; d marks the D form. Ends that are not written are not given here. * marks the point of attachment. Biotin = O=C1N[C@H]2[C@H](CS[C@H]2CCCCC(=O)*)N1; Lys(Me2) = CN(C)CCCC[C@H](N)C(=O)O

The term IC50 denotes the concentration at which inhibition is half-maximal. A low value points to higher potency.

The target in this test is T1, MBP-53BP1-Tudor protein (residues 1484-1603) (UniProt Q12888 1484-1603).
T1 construct: range 1484-1603; also called MBP-Tudor fusion of 53BP1; not shown: MBP fusion partner
Nature of the test: pulldown competition on MBP-53BP1-Tudor; competitor GST-UbvG08; immunoblot.

T1 sequence (Q12888 1484-1603): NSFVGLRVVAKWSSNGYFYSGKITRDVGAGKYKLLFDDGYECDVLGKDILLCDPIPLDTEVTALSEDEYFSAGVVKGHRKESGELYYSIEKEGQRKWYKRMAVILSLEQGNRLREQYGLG

B1: biotin-labeled peptide derived from histone H4K20me2 (peptide)
peptide: {Biotin-Mini‑PEG}-YGKGGAKRHR[Lys(Me2)]VLRD
notes: Synthetic peptide (BioBasic Canada Inc.); also called H4K20me2 peptide
Consider B1, for which the IC50 was in the range of 100 to 300 µM.
